T1: marmoset IL-17A (marmoset, IL-17A is a disulfide-linked homodimer. One chain is given.)
T1 chain: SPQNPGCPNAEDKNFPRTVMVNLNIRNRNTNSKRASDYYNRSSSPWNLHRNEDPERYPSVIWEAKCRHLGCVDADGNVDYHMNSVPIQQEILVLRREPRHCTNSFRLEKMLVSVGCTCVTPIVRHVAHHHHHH

T2: mouse IL-17A (mouse, UniProt Q62386 26-158)
T2 sequence (looked up): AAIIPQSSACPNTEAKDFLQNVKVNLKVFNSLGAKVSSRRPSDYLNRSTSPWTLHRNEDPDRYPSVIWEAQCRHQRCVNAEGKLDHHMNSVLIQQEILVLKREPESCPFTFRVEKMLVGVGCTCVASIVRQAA

T3: rat IL-17A (rat, UniProt Q61453 18-150, limits assumed)
T3 sequence (looked up): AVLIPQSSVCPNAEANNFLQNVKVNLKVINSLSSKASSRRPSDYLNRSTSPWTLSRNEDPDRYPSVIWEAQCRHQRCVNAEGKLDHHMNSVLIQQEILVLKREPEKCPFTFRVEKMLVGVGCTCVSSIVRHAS

T4: human IL-17F (human, UniProt Q96PD4 31-163)
T4 construct: GenBank AF384857, expressed in Hek293 as 6-His C-terminal tagged protein; also called hIL-17F; IL-17F-6HIS
T4 sequence: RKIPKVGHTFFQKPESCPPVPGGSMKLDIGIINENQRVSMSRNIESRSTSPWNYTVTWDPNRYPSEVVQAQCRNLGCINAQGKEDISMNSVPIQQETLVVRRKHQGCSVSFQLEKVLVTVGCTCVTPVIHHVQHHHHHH

T5: marmoset IL-17F (marmoset, UniProt A6N6I9 31-163)
T5 sequence (looked up): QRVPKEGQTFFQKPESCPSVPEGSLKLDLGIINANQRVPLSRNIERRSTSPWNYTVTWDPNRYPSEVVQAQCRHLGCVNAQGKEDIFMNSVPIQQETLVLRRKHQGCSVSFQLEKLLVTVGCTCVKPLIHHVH

T6: mouse IL-17F (mouse, UniProt Q7TNI7 29-161)
T6 sequence (looked up): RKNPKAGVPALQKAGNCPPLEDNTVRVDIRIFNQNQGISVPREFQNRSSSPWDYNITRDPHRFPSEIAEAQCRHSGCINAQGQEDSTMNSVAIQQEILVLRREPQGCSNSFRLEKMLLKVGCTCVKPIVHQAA

T7: rat IL-17F (rat, UniProt Q5BJ95 29-161)
T7 sequence (looked up): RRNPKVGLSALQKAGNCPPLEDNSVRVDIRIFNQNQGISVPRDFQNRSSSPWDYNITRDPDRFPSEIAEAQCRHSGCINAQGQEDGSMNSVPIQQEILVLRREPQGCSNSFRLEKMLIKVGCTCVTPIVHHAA

B1: 13E02 (VHH)
VHH: EVQLVESGGGLVQAGGSLRLSCAASGRTYDAMGWLRQAPGKEREFVAAISGSGDDTYYADSVKGRFTISKDNAGITMYLQMNSLKPEDTAVYYCATRRGLYYVWDSNDYENWGQGTQVTVSS
notes: Class 4; also called IL17MS13E02
B2: IL17MS3060 (VHH)
VHH: DVQLVESGGGLVQPGGSLRLSCTASGTIVNIHVMGWYRQAPGKQRELVALIFSGGSADYADSVKGRFTISRDNSKNTVYLQMNSLRPEDTAVYYCAAEIGYYSGGTYYSSEAHWGQGTLVTVSS
notes: variant of IL17MS04G01; basic = A14P, A74S, E81Q, K83R, Q108L
B3: IL17MS04G01 (VHH)
VHH: EVQLVESGGGLVQAGGSQRLSCTASGTIVNIHVMGWYRQAPGKQRELVALIFSGGSADYADSVKGRFTISRDNAKNTVYLEMNSLKAEDTAVYYCAAEIGYYSGGTYYSSEAHWGQGTQVTVSS
notes: Class 2 Nanobody, wild type; also called WT
B4: 16A04 (VHH)
VHH: EVQLVESGGGLVQAGGSLRLSCAASGRTFSSYVVGWFRQAPGKEREFIGAISGSGDSIYYAVSEKDRFTISRDNGKNTLYLQMSSLKAEDTAVYYCTADQEFGYLRFGRSEYWGQGTQVTVSS
notes: Class 3; also called IL17MS16A04

Legend:
human IL-17A [1] = biological target: T8, human IL-17A (human, UniProt Q16552 24-155); test: ELISA, coated IL-17A
T8 construct: secreted form (GenBank U32659) expressed in Hek293 with C-terminal 6-His; also called hIL-17A; IL-17A-6HIS
T8 sequence (Q16552 other isoform, or with tags, fused parts or gaps): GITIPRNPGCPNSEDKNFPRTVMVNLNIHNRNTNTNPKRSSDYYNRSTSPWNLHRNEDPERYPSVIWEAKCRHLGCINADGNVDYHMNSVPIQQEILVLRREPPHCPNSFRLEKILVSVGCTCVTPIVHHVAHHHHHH
Protocol: (§1) Binding of a selected panel of anti-IL-17 Nanobodies to IL-17 of other species was assessed using a binding ELISA. […] HRP (horseradish peroxidase) conjugated anti-myc (Serotec, MCA 2200P) was used for detection using esTMB as substrate.

marmoset IL-17A = biological target: T1, marmoset IL-17A; test: ELISA, coated IL-17A
Protocol: as §1

mouse IL-17A = biological target: T2, mouse IL-17A; test: ELISA, coated IL-17A
Protocol: as §1

rat IL-17A = biological target: T3, rat IL-17A; test: ELISA, coated IL-17A
Protocol: as §1

guinea pig IL-17A = guinea pig IL-17A (guinea pig); test: ELISA, coated IL-17A
Protocol: as §1

human IL-17F [2] = biological target: T4, human IL-17F; test: ELISA, coated IL-17F;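 further: binding ELISA on coated antigen from various species, with bound Nanobodies revealed by an HRP-linked anti-myc antibody and esTMB substrate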
Protocol: as §1

marmoset IL-17F = biological target: T5, marmoset IL-17F; test: ELISA, coated IL-17F;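 further: binding ELISA on coated antigen from various species, with bound Nanobodies revealed by an HRP-linked anti-myc antibody and esTMB substrate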
Protocol: as §1

mouse IL-17F = biological target: T6, mouse IL-17F; test: ELISA, coated IL-17F;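 further: binding ELISA on coated antigen from various species, with bound Nanobodies revealed by an HRP-linked anti-myc antibody and esTMB substrate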
Protocol: as §1

rat IL-17F = biological target: T7, rat IL-17F; test: ELISA, coated IL-17F;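 further: binding ELISA on coated antigen from various species, with bound Nanobodies revealed by an HRP-linked anti-myc antibody and esTMB substrate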
Protocol: as §1

human IL-17A [3] = biological target: T8, human IL-17A; test: KinExA, 500 pM Nanobody
human IL-17F [4] = biological target: T4, human IL-17F; test: KinExA, 500 pM Nanobody
human IL-17A [5] = biological target: T8, human IL-17A; test: competition ELISA IL17A-RA
Protocol: (§2) To this end, IL-17RA, respectively IL-17RC was coated at a concentration of 1 μg/ml in PBS.

human IL-17F [6] = biological target: T4, human IL-17F; test: competition ELISA IL17F-RC
Protocol: as §2

human IL-17A [7] = biological target: T8, human IL-17A; test: SPR, IL-17A-Nanobody complex over captured IL-17RA
Description: (§3) The receptor (IL-17RA or IL-17RC) was captured via its human Fc-tail by an anti-human IgG-Fc antibody coated on the chip.

human IL-17F [8] = biological target: T4, human IL-17F; test: SPR, IL-17F-Nanobody complex over captured IL-17RC
Description: as §3

human IL-17A [9] = biological target: T9, human IL-17A (human, UniProt Q16552 24-155); test: SPR (Biacore) off-rate
T9 construct: secreted form made in Hek293 cells (GenBank U32659); also called hIL-17A; hIL17A
T9 sequence (Q16552 other isoform, or with tags, fused parts or gaps): as above

[10] = biological target: T10, human IL-17A/F heterodimer (human, UniProt Q16552 24-155; Q96PD4 31-163, limits assumed); test: SPR (Biacore) off-rate
T10 construct: bought, made in E. coli (R&D Systems 5194-IL/CF); also called hIL-17A/F; hIL17A/F
T10 sequence (Q16552 24-155 limits assumed, one chain of several): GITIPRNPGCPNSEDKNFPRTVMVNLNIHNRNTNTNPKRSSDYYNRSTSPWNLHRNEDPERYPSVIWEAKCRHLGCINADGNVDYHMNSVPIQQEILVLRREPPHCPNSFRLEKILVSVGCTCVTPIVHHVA

Cynomolgus monkey IL-17A = biological target: T11, Cynomolgus monkey IL-17A (Cynomolgus monkey, UniProt A0A2K5TTB0 24-155); test: SPR (Biacore) off-rate
T11 construct: also called cyno IL-17A; cIL-17A
T11 sequence (A0A2K5TTB0 entry or part of it): as the sequence (Q16552 24-155 limits assumed, one chain of several) above, with T3A, P8S, N34S, I77V, N78K, P104R counted along it

human IL-17A [11] = biological target: T9, human IL-17A; test: cell-based or functional assay
[12] = biological target: T10, human IL-17A/F heterodimer; test: cell-based or functional assay
human IL-17A [13] = biological target: T9, human IL-17A; test: competition ELISA IL-17A-IL-17RA
human IL-17A [14] = biological target: T9, human IL-17A; test: AlphaScreen IL-17A-IL-17RA (average)
human IL-17F [15] = biological target: T4, human IL-17F; test: KinExA, 100 pM Nanobody
Protocol: The affinity of a limited set of formatted Nanobodies was determined using the KinExA.

Binder | OD (human IL-17A [1]) | OD (marmoset IL-17A) | OD (guinea pig IL-17A) | OD (human IL-17F [2]) | OD (marmoset IL-17F) | OD (mouse IL-17F) | OD (rat IL-17F) | % Biacore binding (IL-17F-NB)-IL-17RC (human IL-17F [8]) | koff (human IL-17A [9]) | koff [10] | koff (Cynomolgus monkey IL-17A) | IC50 cell based assay hIL-17A (IL-6, HT-1080 cells) (human IL-17A [11]) | IC50 cell based assay hIL-17A/F (IL-6, HT-1080 cells) [12] | IC50 (human IL-17A [13]) | IC50 (human IL-17A [14]) | further results
B1 | 1.79 OD | 1.85 OD | 0.006 OD | 1.1 OD | 0.248 OD | 0.0155 OD | 0.0255 OD | 7.17% |  |  |  |  |  |  |  | OD (mouse IL-17A): -0.001 OD; OD (rat IL-17A): 0.003 OD; Kd (human IL-17A [3]): 0.0359 nM; Kd (human IL-17F [4]): 3.62 nM; IC50 (human IL-17A [5]): 0.42 nM; IC50 (human IL-17F [6]): 3.02 nM; % Biacore binding (IL-17A-NB)-IL-17RA (human IL-17A [7]): -1.04%
B2 |  |  |  |  |  |  |  |  | 0.00015 s⁻¹ | 0.000209 s⁻¹ | 0.000154 s⁻¹ | 0.93 nM | 5.5 nM | 0.181 nM | 0.081 nM | 
B3 |  |  |  |  |  |  |  |  | 0.000116 s⁻¹ | 0.00017 to 0.00023 s⁻¹ | 0.00032 s⁻¹ | 0.71 nM | 7.55 nM | 0.122 nM | 0.093 nM | 
B4 | 0.043 OD | 0.019 OD | 0.008 OD | 1.74 OD | 1.64 OD | -0.0015 OD | 0.0015 OD | 4.84% |  |  |  |  |  |  |  | Kd (human IL-17F [15]): 0.0194 nM

— patent publication US20210130452A1 (Merck KGaA, published 2021)
